Assay results published in article PMC5352116, “Quinacrine induces apoptosis in cancer cells by forming a functional bridge between TRAIL-DR5 complex and modulating the mitochondrial intrinsic cascade” (Oncotarget, 2016).

Target: T1, Death Receptor 5 (DR5) (human (endogenous in MCF-10A-Tr), UniProt O14763 56-440)
T1 construct: Death receptor 5 (DR5, TRAIL-R2/Killer), endogenous in MCF-10A-Tr cells (derived from the human breast epithelial line MCF-10A); precipitated with an anti-DR5 antibody; also called TRAIL-R2; Killer; source: endogenous, MCF-10A-Tr cells (on cells; RIPA lysate)
Test: co-IP; DISC analysis: MCF-10A-Tr cells untreated or treated with QC, TRAIL or TRAIL (10 ng/mL, 3 h) then QC (2.5 uM, 48 h); RIPA lysate, pre-cleared with sepharose-4B beads, immunoprecipitated with anti-DR5 antibody at 4°C overnight; western blot
Details: partners not purified

B1: Fas-Associated protein with Death Domain (FADD) (natural protein, human (endogenous in MCF-10A-Tr), UniProt Q13158 1-208, looked up)
chain: MDPFLVLLHSVSSSLSSSELTELKFLCLGRVGKRKLERVQSGLDLFSMLLEQNDLEPGHTELLRELLASLRRHDLLRRVDDFEAGAAAGAAPGEEDLCAAFNVICDNVGKDWRRLARQLKVSDTKIDSIEDRYPRNLTERVRESLRIWKNTEKENATVAHLVGALRSCQMNLVADLVQEVQQARDLQNRSGAMSPMSWNSDASTSEAS
notes: FADD, adaptor protein of the DISC, endogenous in MCF-10A-Tr cells; source: endogenous, MCF-10A-Tr lysate
fold level in the DISC (anti-DR5 immunoprecipitate), TRAIL+QC treated against untreated cells: 8 fold
